Source: the DeepSol protein solubility set

Experiment: soluble on expression in E. coli; label from the status in PepcDB or PDB records

Sequence | soluble on expression in E. coli
MGSDKIHHHHHHMVKKIMLHGATDYGSSNYGDYLYGEIVYDLLESKGYEVSFYNPSDFFQMYLKEYRQKQSFTKKQADAILYIPGGYFGEGHNARFRDNLIQFKRFLPLGIWASYFKKPIGVLGIGAGPNNDSLMNYGIKRIINHAQFITVRDRESFDSLKHLSPSAPVHETFDLIISSKLREEKTEQLCQLKREAKDKKIILVHYNHSKKALEKFAESISLFLENNPNYYVVVTSDSILPYEDAYYQEFRKLVRTEDCFQFKYHSPAEMTSLLKMVDVVLTCKLHVGVVATCFNKSVIAIACHPEKTARYYGAIGELQRCESLFDSSVNSIVKKLETFHLKPITIPSELVLKARSSLDYLDLFLEGLVRES | not soluble
MGSDKIHHHHHHMVKNDESQIFTKMRLTLVIPSLYSGGAERVLSIIANYWASKGWKVTLLTFCGNQPPFYDLDSRISYIPLHIARDSSNLIAAVKNNLYRIFKLRLAITASNPDIVISFMSEANVTTLLATRGLNVPVLVSERNNPKIRLTKSSIWVKLRQLTYPFAQRVIVQTQRALNYFPSSLKNRICVIPNPVLLPPNKPCKPQELFNKLPGQKLLIAVGRLESQKGFDLLLQAFANLKDDFSEWQLVILGEGILHLDLTELCHQLQLNGRVYFLGRVKNIYEFLQEADIYVMSSRFEGFPNALCEAMASGLPVISTDCPNGPREIIRDGIDGLLVPNEDVLALTSAIKLLMSDEEKRKNLATNASEIAERFSIDKIMEMWEFVVKDVVES | not soluble
MGSDKIHHHHHHMVKVLILGQGYVASTFVAGLEKLRKGEIEPYGVPLARELPIGFEDIKIVGSYDVDRAKIGKKLSEVVKQYWNDVDSLTSDPEIRKGVHLGSVRNLPIEAEGLEDSMTLKEAVDTLVKEWTELDPDVIVNTCTTEAFVPFGNKEDLLKAIENNDKERLTATQVYAYAAALYANKRGGAAFVNVIPTFIANDPAFVELAKENNLVVFGDDGATGATPFTADVLSHLAQRNRYVKDVAQFNIGGNMDFLALTDDGKNKSKEFTKSSIVKDILGYDAPHYIKPTGYLEPLGDKKFIAIHIEYVSFNGATDELMINGRINDSPALGGLLVDLVRLGKIALDRKEFGTVYPVNAFYMKNPGPAEEKNIPRIIAYEKMRIWAGLKPKWL | soluble
MGSDKIHHHHHHMVQISETSSELIQLLRIENSAPEVLQILDHADSRYIRDLKVNVSNALVTAHISEKESALLALSIAANQKNNILISGFQKLSAEKGATIEEQNEAISCASLLAGNNVFYRFRHFQQKESYNTMQAKIKMNIMMKPVLGKEFFELISLAVSAVNGCEMCVNAHEHSVREMGATEERVWDAIRLAAVITSLDKVMS | not soluble
MGSDKIHHHHHHMVQTPSKPITLDEFLKLPETEPASEYIEGKIIQKPMPQGKHSAIQSECVSVINSVVKPQRIARAFLELRCTFGDHSTVPDISVFIWSRIPREENGEIANIFLIAPDWTIEILSPDQSQTKVTKNILHCLKHGTQMGWLIDPDEQTVFVYRPQQETEVFDEPDALVPVPSFASELHLSIKDLFSWLL | not soluble
MGSDKIHHHHHHMVSSSAKLHDPEEGSAANFPDIDNLKIAFGQLPSGVVIVTSQGCGGEMVGATVSSFASLSFTPPLVMLGLAQSSTTLSAILDHGHFAVHVVAEPQQDIAMRFASSRADKFSDIDFKLSPSGVPILSEFDTCFHCALERAQSAGDHQLLIGRIVDVSTVERDTTPVAWFNRRFHICEPRALV | not soluble
MGSDKIHHHHHHMVTTRKPLRAAIIGLGRLGERHARHLVNKIQGVKLVAACALDSNQLEWAKNELGVETTYTNYKDMIDTENIDAIFIVAPTPFHPEMTIYAMNAGLNVFCEKPLGLDFNEVDEMAKVIKSHPNQIFQSGFMRRYDDSYRYAKKIVDNGDIGKIIYMRGYGIDPISGMESFTKFATEADSGGIFVDMNIHDIDLIRWFTGQDPVQAYGLTSNIAAPQLADIGEFETGVAQLKMSDGVIATLIGGRHAAHGNQVELEVMGSNGWVRIGEHPDLNRVTVFNDQGVVRPSLQSFGERFDTAFTDEVQDFVNNVIVGKQPEVTVDDGIKALKIAKACQQSANIGKLVDIQL | not soluble
MGSDKIHHHHHHMWFRSKPGKSRAAAKGRDVQSTPKASTDVVLERVRLPVDLLQPGMKVVKLDRPWTEVPVLFQGFTLQTEAEARVLRQYCAWVVVEDEAERLAPVLDQIPHLKQRTTEPLQETRTLEQELPRAADTWSRTQQFVEKLIRDIEQNNDLELASARPLIRSCVDSVKTNASAMFWMARIKHRDAYTAEHCLRVAILTVAFARFLGLPEDDLEVAGMCGLLHDIGKLRVPDEILNKPGPLSPQEYEVMRKHTTLGHELLKQDPSLDPIISDVTLHHHERIDGRGYPQQLPEWQISRFARLIAIVDAYDAMTSDRCYRDGMSPADAVRILYKNRAQQFDADMVEAFIRMIGIYPPGSLVELNTGEVALVVSTHPGRKLKPKVEILLDNNKHPVTPRVMDLGSQTTTDGPVREIKAPLPDGAFGISLEGRVKQLMAKTIANHS | not soluble
MGSDKIHHHHHHMWFSLTYAIIMHSLTTTRKMLQRLDVYLTSFEWGNFSKSKLSILQAFLKIATKDGYDAVSMRSLAKAVDLKPPTMYSHFPAGKDQIVSSAFRWHYYSFAMAVKEGLSQSETLEEYWSALIRVHIIQQIKHPENDLFDMLMATDRLGSILPTDLRSEMIEWLSFCDFMYESIATDLGIDDAKQKSKIIRVTLDGANSWWKWDDSQENLEECIRYAERIAAGILKI | not soluble
MGSDKIHHHHHHMWSLMHPYLPATVRKWTNLNLSNHSFSLNTMKTKRLSEFFPGVRSYYIVGEIAIITPKRVNVDYNLVAEKIMQAHPKIKAVYLKKKVKGELRTNELEFLSGERISSTIYKENGVLFYVDINKVYVNPSLSGDRLKNLELVEEGSTVLDAFTGYGAIALNIAHKKRVYVVAGDINIDGLYMLKKSLSLNKIKGMIDIVQYDAHHLPFRDKVFKLSFGDNPTLIIDFKEELCRVSENVVFYILCESEDKANSSLGRTSWIKINDYSKNLFIFKGLVRC | not soluble
MGSDKIHHHHHHMYDNDLWFATINLPYRQKLELLRIYKTSDEILYNFKNSELIQKYKFDIEKINYIKDEMKKSGMKIVFWNDDDYPKVLKNYDDMPYGLFYMGNIKKLNELNYNVAIVGSRRCTQYGKDITTIISREISINGIGIISGMARGIDTYAHKICLENNGYTCAVLGCGADVIYPKENKNLYCQIIRNGCIISQYKPNTKPLPYNFPIRNKIISGLSNLVLVTEADIKSGSIITASSALEQGKDVGAVPGSVFSKMSRGTNKLIQDGAHVIKDIDDVFGILNFQKINFKKIRNNSSYSSMPENQRQIYDLVSDKPIHVDDIKRCLNIDIQELYELLFEMQLKNKILCLSGSYYVRVNDCL | not soluble
MGSDKIHHHHHHMYFELKENRPHGTPENPFSQYHISDVKRAFQIPVHWHDELEIIYVKQGKLHVTISGENYIGSPKDAFVVSPGSLHLMGSPTGDADYYTFLFPLEYISFQTDDLMEKSILSPLKRGRLMISPQINDTAADICERLIEINEQISGKNAEKTDAANIEAQFETKITLIKFIRKMWRNGLILENGTNGTNTTEKEMITYIRQNYTREISLKEFGAQFHLSEKYISRYFKEHFHITLSQYVNHLRLEHARQLLEESTASVTEVAMCSGYQNVSYFIRSFKKMYGVSPLKYRNFQTLP | not soluble
MGSDKIHHHHHHMYGNKIVFSGLENIKDCCKMKITRDELLIAAFKLFMSVNYEKASFAELGKMLGMSKAGIFKYYKNKQELFIAVVDKFWFSTQNPRNKFTETNGTFAEFIDEYVRGVQRTMDMLGDLIGAEREKVAQGKFTYHAQYFHFLFQLLQYDPDAKEKLRNLVEVDYAYWRAAIQRAIATGELREDVDVEDAVVMFRQVYMGLSFEMAFMGGLNTQRLAKHLHAVYSLLKR | not soluble
MGSDKIHHHHHHMYNEYQPSLLLAPYIDKYWEFKGNPDYGMKINILPDGCTDFIFTLGEVADIAEQESLIMQPYRSYFVGPMSRYSTLITYAKSIHMFGIRFLPCGLFRFMQLPLEELGNQRISTFESGGIFNDSLAERLCEQPYIQDKIRLIESFLTQALCTNNKIEKQISYAVDCINLSKGQLPIRSLVENVCLCQRHFERKFKHQTGYSPKEYSRIIKFKNAVDLLRSTSSNQLFSVAIEAGYYDTAHLSKEIKALSGNTPGSFLSLPVTEETTLTYLKL | not soluble
MGSDKIHHHHHHMYPGCRLCINIGDQFARSVYYGRYKVIPIRTEIIKFCETMGFDYMGAIIWQKVTTTNTTGGATIMGSFPYPRNGILKLDYEFILFFKKQGNAPKPTREQKERSVISKEDWNTYFSGHWYFSGVKQEGHIAMFPEELPARLIKMFAFVGDTVLDPFLGSGTTSMAARNLERNSIGYEINQDFIPAIRQKLNVCQMDIHGAEYSFLEDSATIDCEQEIEKLPYVFKDPHKLDKKIDPKKLLFGSKIDRNSADREEYFSVKEVISPEVIRLSNGLLIRLMGVRENTAMNGLAVNFITEKTKGQKIFLKFDLQKHDSQNRLLCYVYLKNKTFLNAHLIKEGLAIVDRSVDFRYKDKFMKLEAQCG | not soluble
MGSDKIHHHHHHMYPRYSEINVKEALSDTPVVFVMGPRQAGKTTLVKSLIMDMGSENWTYITLDDQAQFEIAQADPVGFVRNLPSTRIALDEVQRLPELFVSIKQAVDEQRSPGRFLLTGSANALLLPRLSDSLAGRMESVRLMTLSECEIQGRQPSFLIKLLREEAPSTQDIRVRDHLLQRLVTGCFPEPLQRANERRRQAWYQQYTSTLIQRDIRDLTHIDHPDLMAKLLKLTAFYAGKLVNLTELGGKLGLDRLTIKKYMALLEQLFLVEQLPAWHSNEYKRLVKTPKLHPVDTGMMCAVRGLNQERLLKQPGDFGLVLESFVYNELRKQSVWIDEPLNFYHYRDKDKVEVDVVIENTMGDCFAIEIKAAATLNTKDFTGLKRFQSVAGDRFKIGVLLYDGDHTTAFGDNLYAVPVGALWS | not soluble
MGSDKIHHHHHHMYQELPPLPWLRAFDASARLGNFTLAAQELGLTPSAVSYQVRGLEATLGHKLFVRKQKSLFLTRLGQAYLPVVSKAFGDLEATTSNLFGKSAAQEITLRCLSSLNMLWLAPRLSRFQAQHPDCRLRVLSALWGETPEALQIDIDIRYGNGSWSDGEVTRLMHHEVLAVCAPALHPGPDPQAIASCPLIEVIGVTDTWHHFFALHGLAPPSSGPALKVDQSLIALELATRGMGVALIARVFAQRYLESGALVEATDLALPAREGHYIVQPEARNHFRPEVAALKDWLLQEAAQTGC | not soluble
MGSDKIHHHHHHMYQVPLEMICRHDRTAEVCRAAVEEDGWQLENVPEEMKTPELCRKALETEAGFGNDFHRGLVQHIPSPEVCMEVLKECRENNPEELYGVAVAIRPEVMNGEMADFLLPLDGRCISILPVHLQTPERVRVAVETSGMSAVGRGGVPKSLLTPDVYVRCAAHSRESLMMIPWAERSPEVCLMAKTLYPDIVKNHPEFVPESVRNQDSIYTLNSLMESLTGEKFSYRQMTDFYNGKPLDVKRMETPDGVQKDKAVKFDKETGKFSFSDIRQERKRGLKM | not soluble
MGSDKIHHHHHHMYSDQTYEVIKNRTLENINLDIYKGEGSFLNNMVSGNNLELSKIYLELSKMHKMAFIQDTYNQFLDKRVNEFGVYRKLGTESNGEVEFIGEKGTVINNGTIISYRDLLFVVIKDVTIGSEEGDNSPVQALEVGKKYNLPTNCEFKLVDNISGVTKITNTRSFEGGTDIETDEELKERFYKIQRNQATSGNKAHYEEWALEVDGVYNVKVYPRWDGPGTVKVLIFGKNNQAVDTETIERCQQHIDEEKPIGPTITVVTPLPIEISISAVMKLEDGYTLDNVKESFLESINTYFRDIRGEIIYTKVMGILINTTGVHDLSNLLINGSTDNITINEDKIPSVTTVNFSEVENQ | not soluble
